Measured values: publication PMC11779849, “Outside-in engineering of cadherin endocytosis using a conformation strengthening antibody” (Nature Communications, 2025)

Columns and labels:
[1] = molecular target: T1, human P-cadherin W2A mutant ectodomain (EC1-5) (Homo sapiens, UniProt P22223, point mutant, biotin on the Avi-tag (BirA enzyme)); assay: far-Western, overlay or dot blot; Western blot: purified Pcad ectodomains boiled in SDS-PAGE sample buffer with 2-mercaptoethanol, run on gels, transferred to PVDF; probed with CQY684; conditions: both partners purified
T1 construct: signal peptide in the construct; Made with the Q5 site-directed mutagenesis kit from the WT ectodomain construct; also called Pcad W2A; W2A Pcad; source: Expi293 suspension cells, transfected, purified from conditioned media (Ni-NTA), biotinylated with BirA; not shown: Avi-tag, C-terminal, kept
T1 sequence (P22223 whole entry, looked up, stated change not applied, the tested form may be a part): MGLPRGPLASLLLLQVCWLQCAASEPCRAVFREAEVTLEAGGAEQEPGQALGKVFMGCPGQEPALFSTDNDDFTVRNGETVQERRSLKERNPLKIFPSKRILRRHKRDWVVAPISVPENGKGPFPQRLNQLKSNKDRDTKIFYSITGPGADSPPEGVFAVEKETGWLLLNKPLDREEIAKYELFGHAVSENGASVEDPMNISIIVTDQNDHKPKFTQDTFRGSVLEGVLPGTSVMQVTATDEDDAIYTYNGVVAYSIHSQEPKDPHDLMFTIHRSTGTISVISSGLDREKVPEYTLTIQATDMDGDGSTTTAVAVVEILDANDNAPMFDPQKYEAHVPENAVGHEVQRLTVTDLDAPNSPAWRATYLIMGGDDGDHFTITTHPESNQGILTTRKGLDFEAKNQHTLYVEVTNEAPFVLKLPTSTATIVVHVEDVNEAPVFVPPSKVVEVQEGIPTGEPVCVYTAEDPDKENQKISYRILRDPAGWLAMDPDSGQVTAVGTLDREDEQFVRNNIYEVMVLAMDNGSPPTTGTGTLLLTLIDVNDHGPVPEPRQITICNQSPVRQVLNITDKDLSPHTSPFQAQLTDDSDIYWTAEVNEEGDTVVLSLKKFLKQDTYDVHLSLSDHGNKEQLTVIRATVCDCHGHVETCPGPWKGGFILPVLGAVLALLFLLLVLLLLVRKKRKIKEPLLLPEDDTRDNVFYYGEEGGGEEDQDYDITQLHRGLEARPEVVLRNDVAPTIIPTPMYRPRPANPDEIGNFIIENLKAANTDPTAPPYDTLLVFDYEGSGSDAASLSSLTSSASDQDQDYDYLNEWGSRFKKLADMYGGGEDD

[2] = molecular target: T2, wild-type human P-cadherin ectodomain (EC1-5) (human, UniProt P22223, biotin on the Avi-tag (BirA enzyme)); assay: single-molecule AFM force spectroscopy; as the -CQY experiment but with 40 nM CQY684 Fab in the buffer (+CQY); Pcad EC1-5 on cantilever and substrate; 1 µm/s; Tris buffer pH 7.5 with 2.5 mM CaCl2; conditions: both partners purified
T2 construct: signal peptide in the construct; human P-cadherin (placental cadherin), complete extracellular region EC1-5, ectodomain (1-654); Cloned into pcDNA3.1(+); residue numbers W2, K14 count on the mature protein; also called Pcad WT; WT Pcad; source: Expi293 suspension cells, transfected, purified from conditioned media (Ni-NTA), biotinylated with BirA; not shown: Avi-tag, C-terminal, kept
T2 sequence (P22223 108-654): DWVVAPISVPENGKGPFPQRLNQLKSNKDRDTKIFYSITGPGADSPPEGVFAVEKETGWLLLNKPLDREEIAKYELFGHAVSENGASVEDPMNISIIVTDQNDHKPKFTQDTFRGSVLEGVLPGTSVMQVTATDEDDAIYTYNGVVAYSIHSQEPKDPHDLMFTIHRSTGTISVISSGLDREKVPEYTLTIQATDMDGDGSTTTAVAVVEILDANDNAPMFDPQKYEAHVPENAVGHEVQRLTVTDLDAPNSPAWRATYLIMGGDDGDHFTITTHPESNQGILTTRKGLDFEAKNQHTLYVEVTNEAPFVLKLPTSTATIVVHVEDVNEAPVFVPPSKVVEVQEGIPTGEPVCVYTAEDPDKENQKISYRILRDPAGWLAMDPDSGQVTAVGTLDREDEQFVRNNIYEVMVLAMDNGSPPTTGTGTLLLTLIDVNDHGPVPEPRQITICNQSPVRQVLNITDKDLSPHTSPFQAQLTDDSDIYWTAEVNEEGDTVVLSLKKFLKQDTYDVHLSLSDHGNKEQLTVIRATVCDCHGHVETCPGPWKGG

binding result [1]: binds | binding result [2]: binds
B1: CQY684 Fab (Fab, V domains shown)
VH: QVQLQQSGPGLVKPSQTLSLTCAISGDSVSSQSAAWNWIRQSPSRGLEWLGRIYYRSKWYNDYALSVKSRITINPDTSKNQFSLQLNSVTPEDTAVYYCARGEGYGREGFAIWGQGTLVTVSS
VL: DIQMTQSPSSLSASVGDRVTITCRASQTISNTLAWYQQKPGKAPKLLIYAASNLQSGVPSRFSGSGSGTDFTLTISSLQPEDFATYYCQQYLSWFTFGQGTKVEIK
notes: variable region cloned into a human IgG Fab backbone; the constant parts of the GenScript human IgG Fab backbone may differ from those in PDB 6ZTR; also called CQY Fab; antibody part of the antibody-drug conjugate PCA062; source: recombinantly generated by GenScript
